{"source": "paper PMC8509413", "key": {"[1]": {"molecular_target": "wild-type equine lutropin/choriogonadotropin receptor (eLH/CGR) (equine)"}, "[2]": {"molecular_target": "wild-type equine lutropin/choriogonadotropin receptor (eLH/CGR) (equine)", "remark": "listed apart in the source"}}}
{"substance": "recombinant equine chorionic gonadotropin (rec-eCGβ/α) (from UniProt P08751 21-169; P01220 25-120) (ligand)", "values": [{"measurement": "EC50 of rec-eCG-stimulated cAMP accumulation (HTRF) in transiently transfected CHO-K1 cells, 30 min", "setting": "eLH/CGR-D578Y (equine)", "result": 0.0479, "unit": "µg/mL"}, {"measurement": "EC50 of rec-eCG-stimulated cAMP accumulation (HTRF) in transiently transfected CHO-K1 cells, 30 min (experiment of Table 1)", "setting": "[1]", "result": 0.0442, "unit": "µg/mL"}, {"measurement": "EC50 of rec-eCG-stimulated cAMP accumulation (HTRF) in transiently transfected CHO-K1 cells, 30 min", "setting": "eLH/CGR-L457R (equine)", "result": 0.0244, "unit": "µg/mL"}, {"measurement": "EC50 of rec-eCG-stimulated cAMP accumulation (HTRF) in transiently transfected CHO-K1 cells, 30 min", "setting": "eLH/CGR-M398T (equine)", "result": 0.0198, "unit": "µg/mL"}, {"measurement": "EC50 of rec-eCG-stimulated cAMP accumulation (HTRF) in transiently transfected CHO-K1 cells, 30 min", "setting": "eLH/CGR-D564G (equine)", "result": 0.0583, "unit": "µg/mL"}, {"measurement": "EC50 of rec-eCG-stimulated cAMP accumulation (HTRF) in transiently transfected CHO-K1 cells, 30 min", "setting": "eLH/CGR-Y546F (equine)", "result": 0.0959, "unit": "µg/mL"}, {"measurement": "EC50 of rec-eCG-stimulated cAMP accumulation (HTRF) in transiently transfected CHO-K1 cells, 30 min (separate experiment of Table 2)", "setting": "[2]", "result": 0.0303, "unit": "µg/mL"}, {"measurement": "EC50 of rec-eCG-stimulated cAMP accumulation (HTRF) in transiently transfected CHO-K1 cells, 30 min", "setting": "eLH/CGR-D405N (equine)", "result": 0.135, "unit": "µg/mL"}, {"measurement": "EC50 of rec-eCG-stimulated cAMP accumulation (HTRF) in transiently transfected CHO-K1 cells, 30 min", "setting": "eLH/CGR-R464H (equine)", "result": 0.914, "unit": "µg/mL"}]}
